What was measured:
human PD-L1 [1] = molecular target: T1, human PD-L1 (human, UniProt Q9NZQ7 19-290); assay: saturation binding of ^111In-PD-L1.3.1 on cells, 4 h on ice, called Scatchard analysis in the filing; the cell line is not printed on the sheet (MDA-MB-231 used in the subsequent binding assays)
T1 construct: whole, on cells; Target presented on human breast cancer cell lines; The quantitative assays (IRF, IC50, Kd) used MDA-MB-231 cells; also called CD274; Programmed Cell Death 1 Ligand 1
T1 sequence (Q9NZQ7 19-290): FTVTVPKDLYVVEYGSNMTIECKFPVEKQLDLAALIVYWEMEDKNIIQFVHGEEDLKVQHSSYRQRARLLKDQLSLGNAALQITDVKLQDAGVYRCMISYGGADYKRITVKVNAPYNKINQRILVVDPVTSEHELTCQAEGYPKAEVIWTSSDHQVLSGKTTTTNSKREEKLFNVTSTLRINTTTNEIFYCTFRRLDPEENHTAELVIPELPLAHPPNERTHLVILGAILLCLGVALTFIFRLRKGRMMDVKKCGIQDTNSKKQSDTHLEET
Method: (§1) Cells were cultured to confluency in six-well plates and were incubated for 4 h on ice with increasing concentrations ¹¹¹In-PD-L1.3.1 (3-3000 pM) in 1 ml RPMI1640 containing 0.5% BSA. Non-specific binding was determined by co-incubation with 100 nM PD-L1.3.1. After incubation, cells were washed with PBS and the cell-associated activity was measured in a shielded well-type gamma counter. The specific binding (total binding—nonspecific binding) was plotted against the bound/free ratio. Data were analyzed by linear regression to determine PD-L1 receptor density per cell and to determine the Kd of ¹¹¹In-PD-L1.3.1.

human PD-L1 [2] = molecular target: T1, human PD-L1; assay: Scatchard analysis on cells, 4 h on ice, 3-3000 pM ^111In-PD-L1.3.1, non-specific binding determined with 100 nM unlabeled antibody; 111In-labeled antibody, Scatchard analysis; MDA-MB-231 cells by paragraph 130
Method: as §1

human PD-L1 [3] = molecular target: T1, human PD-L1; assay: competition on MDA-MB-231 cells, 4 h on ice: unlabeled PD-L1.3.1 (1-1000 pM) against 20 pM ^111In-PD-L1.3.1, gamma counter; unlabeled antibody, competition on MDA-MB-231 cells
Method: MDA-MB-231 cells were cultured to confluency in six-well plates. The 50% inhibitory concentration (IC₅ₒ) of PD-L1.3.1 blocking of ¹¹¹In-PD-L1.3.1 binding was determined by incubating the cells for 4 h on ice in 1 ml RPMI1640 0.5% BSA, containing 20 pM ¹¹¹In-PD-L1.3.1 (1 kBq) and increasing concentrations of unlabeled PD-L1.3.1 (1-1000 pM). After incubation, cells were washed with PBS and the cell-associated activity was measured in a gamma counter. The IC₅₀ was defined as the antibody concentration that was required to inhibit binding of the radio labeled antibody by 50%. IC₅₀ values were calculated using GraphPad Prism.

Kd (human PD-L1 [1]) | Kd (human PD-L1 [2]) | IC50 (human PD-L1 [3]) | Binder
1 nM | 0.97 nM |  | ^111In-DTPA-PD-L1.3.1 (antibody, V domains shown, ITC-DTPA conjugate chelating ^111In; conjugated residues and chain not stated) VH: EVQLQQSGTELVKPGASVKLSCTTSGFNIQDTYMHWVKQRPEQGLEWIGWIDPANGNTKYDPKFQGKATIIADTSSNTAYLQLRGLTSEDTAVYYCARSGVSTAHFDYWGQGTTLTVSS VL: QIVLSQSPAILSASPGEKVTMTCRASSSVSFMHWYQQKPGSSPKPWIYATSNLASGVPTRFSGSGSGTSYSLTLSRVEAEDAATYYCQQWSSYPRTFGGGTKLEIK
 |  | 0.15 nM | PD-L1.3.1 antibody (unlabeled) (antibody, V domains shown, also called unlabeled PD-L1.3.1) VH: EVQLQQSGTELVKPGASVKLSCTTSGFNIQDTYMHWVKQRPEQGLEWIGWIDPANGNTKYDPKFQGKATIIADTSSNTAYLQLRGLTSEDTAVYYCARSGVSTAHFDYWGQGTTLTVSS VL: QIVLSQSPAILSASPGEKVTMTCRASSSVSFMHWYQQKPGSSPKPWIYATSNLASGVPTRFSGSGSGTSYSLTLSRVEAEDAATYYCQQWSSYPRTFGGGTKLEIK

Reference: US20180071413A1 (INSERM INSTITUT NATIONAL DE LA SANTE ET DE LA RECHERCHE …, published 2018)
